± gives the standard deviation of the averaged measurements.
system: ATP; assay: switch fluorescence ratio, 500 uM ATP over buffer (Cy3 cluster intensity, sum of 5 cycles each) (fold (ratio)); higher = stronger signal-on switching upon ATP binding; sequences stand for … in TCGTCGGCAGCGTCAGATGTGTATAAGAGACAGTTTTTTTTTTTTTTTTTTTTTTTTT…TC; conditions: aptamer strand: ATP DNA aptamer (quencher-CACCTGGGGGAGTATTGCGGAGGAAGG + anchor), 100 nM annealed; ATP concentration: 500 uM
In short: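 Exposure to 500 uM ATP lasted 15 min at 22 °C before imaging, and a selection-buffer image was taken beforehand, for Cy3-labelled switching-strand clusters on a modified Illumina MiSeq flow-cell annealed to 100 nM quencher-labelled ATP aptamer. Five buffer/ATP cycles were run with NaOH stripping and re-annealing between them. The fluorescence ratio per cluster is summed target-cycle over summed buffer-cycle Cy3 intensity, averaged per switch-domain sequence. Clusters outside 100-1000 RFU were excluded.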

Sequence | switch fluorescence ratio
TTAATAAGGT | 1.01 ± 0.035
TTTTGGACGG | 1.01 ± 0.032
GCGCAGCTCG | 0.9814 ± 0.0084
GAGCTTGGGG | 0.991 ± 0.028
ATTTACGTAT | 1.06 ± 0.044
GCTTTCATAT | 0.9996 ± 0.0099
TCACGGGGCT | 1.01 ± 0.068
TACGGTGGGG | 1.01 ± 0.027
CTGTTTAGTG | 0.9822 ± 0.0061
TAAGCATTTC | 1.34 ± 0.11
TGGTTGGTGG | 1.05 ± 0.09
AACGGGGTTA | 1.04 ± 0.06
GATGGCAGCA | 1.021 ± 0.0086
CGTTTGATTA | 0.989 ± 0.017
AAAGACGGCA | 1.53 ± 0.02
ACAGGTGCCG | 1.13 ± 0.11
AGGCCTTCAG | 0.9915 ± 0.0083
GACCCTTAGA | 1.01 ± 0.011
TTGATGAATT | 1.01 ± 0.017
GATTGCTTTC | 1.02 ± 0.023
ATTATCTTCT | 0.994 ± 0.061
TTTCTAAATC | 0.979 ± 0.01
TGCAAAAGGG | 1.024 ± 0.0074
ATGGGGGTGG | 0.99 ± 0.0087
TTTAAAATTG | 0.989 ± 0.042

Sequence | switch fluorescence ratio
TGTGAGCTTT | 0.975 ± 0.03
TATAAAAGGC | 0.978 ± 0.045
ACGTGCGCAG | 1.07 ± 0.018
ACATAAGGTT | 1.03 ± 0.052
GAAGTCTGGA | 1 ± 0.024
TGATTTATTG | 0.985 ± 0.03
TTTTAGATAT | 0.98713 ± 0.00039
CTTTGGGGGA | 0.983 ± 0.023
GGGAATCGTC | 0.987 ± 0.04
GACAGCGCTA | 1.01 ± 0.042
GGTCTAGCCT | 0.9858 ± 0.0066
TTTAGACTAG | 0.987 ± 0.017
GGGAGGAGTT | 0.9689 ± 0.0067
ATCTCTTTCT | 1.04 ± 0.019
CAAATCGTTT | 0.985 ± 0.038
GGGCCAAGGG | 1.01 ± 0.022
GCGCTACAGT | 1.021 ± 0.0069
AGGTTCTTTG | 0.974 ± 0.026
TCAGTTCGGC | 0.976 ± 0.037
GGGTAAGGAC | 1.03 ± 0.014
TGCGGGGGGA | 1.03 ± 0.036
GAAGGAGCGG | 0.982 ± 0.023
TAGTTGGCCC | 1.006 ± 0.0034
GAATATATAG | 0.965 ± 0.011
GTCTTTTGTG | 1.31 ± 0.43

Sequence | switch fluorescence ratio
TGGGATCGAG | 0.9719 ± 0.0032
TGTGTGAAGT | 1.01 ± 0.059
AAGACTTTGT | 1 ± 0.024
AAGAGGACGC | 1 ± 0.066
TCATGCGGGC | 1.02 ± 0.038
TCTAGGGGAG | 1.007 ± 0.0099
TGGGGGCCTG | 0.99 ± 0.033
GGGGCGTGCG | 1.01 ± 0.02
AAGAGAGTTT | 0.9837 ± 0.00066
GGGGGTTTGT | 0.983 ± 0.011
TTTGAAGGGG | 1.01 ± 0.035
ACGCTCCAGC | 1.056 ± 0.0053
CTCAGCAGGG | 1.73 ± 0.17
CACTGTCTT | 0.991 ± 0.019
TTATTTGTCG | 1.01 ± 0.019
CATATAGAGG | 1.01 ± 0.054
ATGATCTAGT | 1.03 ± 0.064
TTATATTCTG | 0.9893 ± 0.0041
ACTAGAAATG | 0.984 ± 0.017
ATGTACTACT | 1.07 ± 0.068
GGGGACGAGT | 0.99779 ± 0.00098
AAGTCTTTGG | 0.9599 ± 0.0072
TCGTTTACTT | 1.06 ± 0.13
TTGGTATTGA | 0.99 ± 0.098
CATGGAAGGC | 0.957 ± 0.03

Sequence | switch fluorescence ratio
ACGAGCTAGG | 1.13 ± 0.026
TTGATAGATG | 0.975 ± 0.028
AGAATGCACG | 0.957 ± 0.035
ACCTGTGGGG | 1 ± 0.027
ATTGCGTTAT | 1.03 ± 0.018
CTGGGGAGAG | 1.01 ± 0.026
ACACATTTTT | 1.011 ± 0.01
TTTGATTTTT | 0.984 ± 0.024
TTTTTAGATA | 0.973 ± 0.038
TAGGGGAACG | 0.959 ± 0.0096
CCCATGTTTC | 1.02 ± 0.023
TATTAAAGAC | 1.04 ± 0.1
GACACTTGCT | 0.99 ± 0.035
TAGGTATTGA | 0.987 ± 0.024
TGTACGGGGG | 0.949 ± 0.021
TATATTGGGC | 0.968 ± 0.049
TTACATAAGG | 1.006 ± 0.0048
TTAAACCTCT | 1 ± 0.019
CGGGGTCAAT | 1.85 ± 1.2
TTGTTAAATC | 1.02 ± 0.038
TGCTTCTATA | 1.01 ± 0.051
AAAGGGTTTT | 1.01 ± 0.022
ATCGCAGACA | 1.04 ± 0.015
CTAATGGAGG | 1.01 ± 0.011
GTCGTTGGTG | 1 ± 0.056

Source: the supplement of paper PMC10126150
